Experimental data published in patent publication US20170137467A1 (CHROMOTEK, published 2017).
Square brackets hold non-standard residues; d marks the D form. GABA = NCCCC(=O)O

Key:
Test in all cases: peptide library pulldown on immobilized Nb, LC-MS of supernatant; ratio vs GFP-Nb control (1 = not captured, 0 = captured)
[1] = target: T1, BC2T Q12W library peptide (human)
T1 peptide: Ac-PDRKAAVSHWQW-NH2
Procedure, shortened: (§1)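 Unbound peptide left in supernatant after 1 h pulldown in PBS/0.01% CHAPS measured by reversed-phase LC-MS (8–30% eluent B gradient, 20 min).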

[2] = target: T2, BC2T H9C* library peptide (human, SMILES …)
T2 construct: also called C(Abu)
T2 peptide: Ac-PDRKAAVS[GABA]WQQ-NH2
Procedure, shortened: as §1

[3] = target: T3, BC2T H9E library peptide (human)
T3 peptide: Ac-PDRKAAVSEWQQ-NH2
Procedure, shortened: as §1

[4] = target: T4, BC2T S8K library peptide (human)
T4 construct: also called BC2TS8X: K
T4 peptide: Ac-PDRKAAVKHWQQ-NH2
Procedure, shortened: as §1

[5] = target: T5, BC2T Q11N library peptide (human)
T5 peptide: Ac-PDRKAAVSHWNQ-NH2
Procedure, shortened: as §1

[6] = target: T6, BC2T W10S library peptide (human)
T6 construct: also called BC2TW10X: S
T6 peptide: Ac-PDRKAAVSHSQQ-NH2
Procedure, shortened: as §1

[7] = target: T7, BC2T Q12K library peptide (human)
T7 peptide: Ac-PDRKAAVSHWQK-NH2
Procedure, shortened: as §1

[8] = target: T8, BC2T H9Y library peptide (human)
T8 peptide: Ac-PDRKAAVSYWQQ-NH2
Procedure, shortened: as §1

[9] = target: T9, BC2T H9S library peptide (human)
T9 peptide: Ac-PDRKAAVSSWQQ-NH2
Procedure, shortened: as §1

[10] = target: T10, BC2T W10P library peptide (human)
T10 construct: also called BC2TW10X: P
T10 peptide: Ac-PDRKAAVSHPQQ-NH2
Procedure, shortened: as §1

[11] = target: T11, BC2T Q11V library peptide (human)
T11 peptide: Ac-PDRKAAVSHWVQ-NH2
Procedure, shortened: as §1

[12] = target: T12, BC2T Q12F library peptide (human)
T12 peptide: Ac-PDRKAAVSHWQF-NH2
Procedure, shortened: as §1

[13] = target: T13, BC2T Q12N library peptide (human)
T13 peptide: Ac-PDRKAAVSHWQN-NH2
Procedure, shortened: as §1

[14] = target: T14, BC2T Q12G library peptide (human)
T14 peptide: Ac-PDRKAAVSHWQG-NH2
Procedure, shortened: as §1

[15] = target: T15, BC2T W10C* library peptide (human, SMILES …)
T15 construct: also called BC2TW10X: C*; C(Abu)
T15 peptide: Ac-PDRKAAVSH[GABA]QQ-NH2
Procedure, shortened: as §1

[16] = target: T16, BC2T Q12E library peptide (human)
T16 peptide: Ac-PDRKAAVSHWQE-NH2
Procedure, shortened: as §1

[17] = target: T17, BC2T Q11T library peptide (human)
T17 peptide: Ac-PDRKAAVSHWTQ-NH2
Procedure, shortened: as §1

[18] = target: T18, BC2T Q12V library peptide (human)
T18 peptide: Ac-PDRKAAVSHWQV-NH2
Procedure, shortened: as §1

[19] = target: T19, BC2T Q11S library peptide (human)
T19 peptide: Ac-PDRKAAVSHWSQ-NH2
Procedure, shortened: as §1

[20] = target: T20, BC2T W10A library peptide (human)
T20 construct: also called BC2TW10X: A
T20 peptide: Ac-PDRKAAVSHAQQ-NH2
Procedure, shortened: as §1

ratio [1]: 0.2
ratio [2]: 0.3
ratio [3]: 0.5
ratio [4]: 0.9
ratio [5]: 0.2
ratio [6]: 1.2
ratio [7]: 0
ratio [8]: 0.1
ratio [9]: 0.4
ratio [10]: 1.1
ratio [11]: 0.2
ratio [12]: 0.3
ratio [13]: 0.1
ratio [14]: 0.2
ratio [15]: 1.1
ratio [16]: 0.6
ratio [17]: 0.2
ratio [18]: 0.1
ratio [19]: 0.2
ratio [20]: 1.1
B1: BC2-Nb(R106E) (VHH)
VHH: QVQLVESGGGLVQPGGSLTLSCTASGFTLDHYDIGWFRQAPGKEREGVSCINNSDDDTYYADSVKGRFTIFMDNAKDTVYLQMNSLKPEDTAIYYCAEARGCKRGEYEYDFWGQGTQVTVSS
notes: Headlock mutant; immobilized on beads in the library pulldown
